Data reported in patent US20070031956.

System: S6 peptide (RRRLSSLRA)

Full-length human Pim-1 kinase (residues M1-K313) with N-terminal HexaHis tag and thrombin cleavage site, sequence (chain, as listed by the source): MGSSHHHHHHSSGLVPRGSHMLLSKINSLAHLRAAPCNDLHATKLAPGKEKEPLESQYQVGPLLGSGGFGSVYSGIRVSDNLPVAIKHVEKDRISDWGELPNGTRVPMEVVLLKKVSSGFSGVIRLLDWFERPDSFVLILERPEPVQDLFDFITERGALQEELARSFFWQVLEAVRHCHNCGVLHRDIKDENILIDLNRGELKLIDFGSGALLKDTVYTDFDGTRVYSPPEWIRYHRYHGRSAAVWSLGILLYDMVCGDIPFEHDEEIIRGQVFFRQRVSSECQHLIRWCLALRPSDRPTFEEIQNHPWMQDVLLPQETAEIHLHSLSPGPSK

## Full-length human Pim-1 kinase (residues M1-K313) with N-terminal HexaHis tag and thrombin cleavage site
  peptide Km (coupled-enzyme kinase assay): peptide Km=51±2 µM
